Our source for the percent of substrate extracted from standard liposomes by Msp1 with ATP (split-luciferase extraction assay, 30 min, 30 °C) values is article PMC12624790.

The target of this experiment is His6-3C-SUMO-Sec22 TMD-thrombin-HiBiT.

B1: Δ1-32 Msp1 (enzyme)
chain: DVESGPLSGKSRESKAKQSLQWEKLVKRSPALAEVTLDAYERTILSSIVTPDEINITFQDIGGLDPLISDLHESVIYPLMMPEVYSNSPLLQAPSGVLLYGPPGCGKTMLAKALAKESGANFISIRMSSIMDKWYGESNKIVDAMFSLANKLQPCIIFIDEIDSFLRERSSTDHEVTATLKAEFMTLWDGLLNNGRVMIIGATNRINDIDDAFLRRLPKRFLVSLPGSDQRYKILSVLLKDTKLDEDEFDLQLIADNTKGFSGSDLKELCREAALDAAKEYIKQKRQLIDSGTIDVNDTSSLKIRPLKTKDFTKKLRMDATSTLSSQPLD
The molecule B1 showed a percent of substrate extracted from standard liposomes by Msp1 with ATP (split-luciferase extraction assay, 30 min, 30 °C) of 10%.
